Measurements taken from US11686724B2, “Compositions comprising gamma 9 delta 2 T-cell receptors and methods of use thereof to treat cancer” (Gadeta B.V., priority 2012, dated 2023).

Tests used:
[1] = system: healthy CD34+ progenitor cells; assay: IFNγ ELISpot against healthy CD34+ progenitor cells; assay type: cell-based; conditions: FIG. 5C
Description: (§1) 51Chromium-release assay for cell-mediated cytotoxicity was previously described. Target cells were labeled overnight with 100 μCu 51Cr (150 μCu for primary cells) and incubated for 5 h with transduced T-cells in five effector-to-target ratios (E:T) between 30:1 and 0.3:1. Fold change was calculated when compared to reactivity of engineered T-cells expressing unmutated γ9δ2TCR. IFN-γ ELISpot was performed using anti-hulFN-γmAb1-D1K (I) and mAb7-B6-1 (II) (Mabtech-Hamburg, Germany) following the manufacturer's recommended procedure. Target and effector cells (E:T 3:1) were incubated for 24 h in the presence of pamidronate (Calbiochem, Germany) where indicated. IFNγ ELISA was performed using ELISA-ready-go! Kit (eBioscience) following manufacturer's instructions. Effector and target cells (E:T 1:1) were incubated for 24 h in the presence of pamidronate as indicated. Where specified, fold change was calculated when compared to reactivity of engineered T-cells expressing unmutated γ9δ2TCR.
Mabtech (Hamburg, Germany) following manufactures' recommended procedure (Besold et al., 2007). In all assays target and effector cells (E:T 3:1) were incubated for 24 h in the presence of pamidronate (Calbiochem, Germany) where indicated. […]

Daudi [2] = assay: IFNγ ELISA of γ9δ2TCR-transduced T-cells against Daudi in the presence of pamidronate; assay type: cell-based; set-up: IFNγ secretion (max.): unit not given here; conditions: CD4+ transduced T-cells, pamidronate titration; for IFNγ secretion (max.): FIG. 1B
Description: as §1
IFN-γELISA was performed using ELISA-ready-go! Kit (eBioscience) following manufacturers' instructions. Effector and target cells (E:T 1:1) were incubated for 24 h in the presence of pamidronate as indicated. Where specified, fold change was calculated based on IFN-γ secretion γ9-G115wt/6δ-G115wt transduced T-cells normalized to 1; for the side by side experiments based on γ9-3wt/δ9-3wt, γ9-5wt/69-5wt or γ9-G115wt/δ9-G115wt normalized to 1.

RPMI8226/S-luciferase = RPMI8226/S-luciferase xenograft in Rag2−/−γc−/− mice, adoptive transfer of engineered T-cells; assay type: in vivo; conditions: day 35, n=7, one i.v. injection of 10^7 T-cells
Description: (§2) To induce tumour xenografts, sublethal total body irradiated (2 Gy), 11-17 weeks old RAG-2−/−/yc−/−-BALB/C mice were injected i.v. with 0.5×10^6 Daudi-Luc cells (a kind gift from Genmab Utrecht, The Netherlands) or 5×10^6 RPM I8226/S-Luc cells (Anton Martens, Utrecht, The Netherlands) together with 10^7 γ9δ2TCR+ transduced T-cells. The RAG−2^−/^−yc^−/−-BALB/C mice were originally obtained from AMCAS b.v. (Amsterdam, the Netherlands). Mice were bred and housed in the specific pathogen-free (SPF) breeding unit of the Central Animal Facility of the University of Utrecht. All animal experiments were conducted according to Institutional Guidelines after acquiring permission from the local Ethical Committee for Animal Experimentation, and in accordance with current Dutch laws on Animal Experimentation. All mice developed tumours, mainly growing in the bone marrow visualized in vivo once a week by Biospace bioluminescent imaging. […] Bioluminescence images were acquired using a third generation cooled GaAs intensified charge-coupled device camera, controlled by the Photo Vision software and analyzed with M^3Vision software (all from Photon Imager; Biospace Laboratory). […] Bioluminescence images were acquired and analyzed with M3Vision software (Photon Imager, Biospace Laboratory). […]

[3] = Allo-reactivity of γ9δ2TCR-transduced T-cells; assay type: cell-based
Daudi-luciferase = Daudi-luciferase xenograft in Rag2−/−γc−/− mice, adoptive transfer of engineered T-cells; assay type: in vivo
Description: as §2

Daudi [4] = assay: 51Cr-release assay of γ9δ2TCR-transduced T-cells against Daudi; assay type: cell-based; conditions: FIG. 1A, E:T 3:1, 5 h
Description: as §1
^51Chromium-release assay for cell-mediated cytotoxicity was previously described (Kuball et al., 2004). […] After 4-6 h ^51Cr-release was measured in the supernatant. Fold change was calculated based on ^51Cr-release of γ9-G115wt/69-G115wt transduced T-cells normalized to 1; for side by side experiments based on γ9-3wt/δ9-3wt, γ9-5wt/δ9-5wt or γ9-G115wt/69-G115wt normalized to 1.

| Molecule | recognition of CD34+ progenitor cells [1] | IFNγ secretion (max.) (Daudi [2]) | IFNγ production (max.) (Daudi [2]; FIG. 1D) | tumour outgrowth by bioluminescence imaging (RPMI8226/S-luciferase) | allo-reactivity compared to mock-transduced cells [3] | tumour outgrowth by bioluminescence imaging (Daudi-luciferase; Daudi, day 42, n=4, one i.v. injection of 10^7 T-cells) | protection against tumour growth (BLI) (Daudi-luciferase; one T-cell infusion, FIGS. 6A and 6B (Daudi and RPMI8226/S)) | reduced ability to lyse tumour cells vs control γ9-G115wt/δ2-G115wt (Daudi [4]) |
| --- | --- | --- | --- | --- | --- | --- | --- | --- |
| γ9-G115/δ2-G115: reference γ9δ2TCR of clone G115, γ9 chain SEQ ID NO.1 and δ2 chain SEQ ID NO.2, control (protein, listed as Homo sapiens) chain 1: MVSLLHASTLAVLGALCVYGAGHLEQPQISSTKTLSKTARLECVVSGITISATSVYWYRERPGEVIQFLVSISYDGTVRKESGIPSGKFEVDRIPETSTSTLTIHNVEKQDIATYYCALWEAQQELGKKIKVFGPGTKLIITDKQLDADVSPKPTIFLPSIAETKLQKAGTYLCLLEKFFPDVIKIHWEEKKSNTILGSQEGNTMKTNDTYMKFSWLTVPEKSLDKEHRCIVRHENNKNGVDQEIIFPPIKTDVITMDPKDNCSKDANDTLLLQLTNTSAYYMYLLLLLKSVVYFAIITCCLLRRTAFCCNGEKS chain 2: MERISSLIHLSLFWAGVMSAIELVPEHQTVPVSIGVPATLRCSMKGEAIGNYYINWYRKTQGNTMTFIYREKDIYGPGFKDNFQGDIDIAKNLAVLKILAPSERDEGSYYCACDTLGMGGEYTDKLIFGKGTRVTVEPRSQPHTKPSVFVMKNGTNVACLVKEFYPKDIRINLVSSKKITEFDPAIVISPSGKYNAVKLGKYEDSNSVTCSVQHDNKTVHSTDFEVKTDSTDHVKPKETENTKQPSKSCHKPKAIVHTEKVNMMSLTVLGLRMLFAKTVAVNFLLTAKLFFL | not recognized | 800 | 800 pg/mL | 210.000 counts/min | nearly abolished | 180.000 counts/min | loss of protection | – |
| γ9-cl3/δ2-cl3: wildtype γ9δ2TCR of T-cell clone 3 (SEQ ID 8 and 10) (protein, listed as Homo sapiens) chain 1: MVSLLHASTLAVLGALCVYGAGHLEQPQISSTKTLSKTARLECVVSGITISATSVYWYRERPGEVIQFLVSISYDGTVRKESGIPSGKFEVDRIPETSTSTLTIHNVEKQDIATYYCALWEEELGKKIKVFGPGTKLIITDKQLDADVSPKPTIFLPSIAETKLQKAGTYLCLLEKFFPDVIKIHWEEKKSNTILGSQEGNTMKTNDTYMKFSWLTVPEKSLDKEHRCIVRHENNKNGVDQEIIFPPIKTDVITMDPKDNCSKDANDTLLLQLTNTSAYYMYLLLLLKSVVYFAIITCCLLRRTAFCCNGEKS chain 2: MERISSLIHLSLFWAGVMSAIELVPEHQTVPVSIGVPATLRCSMKGEAIGNYYINWYRKTQGNTMTFIYREKDIYGPGFKDNFQGDIDIAKNLAVLKILAPSERDEGSYYCACDLLGYTDKLIFGKGTRVTVEPRSQPHTKPSVFVMKNGTNVACLVKEFYPKDIRINLVSSKKITEFDPAIVISPSGKYNAVKLGKYEDSNSVTCSVQHDNKTVHSTDFEVKTDSTDHVKPKETENTKQPSKSCHKPKAIVHTEKVNMMSLTVLGLRMLFAKTVAVNFLLTAKLFFL | – | 600 | – | – | – | – | – | 50% |
